Assay results from US20050260730A1 (published 2005).
Non-standard residues stand in square brackets, D forms with d. Phe(4-F) = N[C@@H](Cc1ccc(F)cc1)C(=O)O

B1: H-Arg-Arg-Leu-(p-F-Phe)-NH2 (peptide)
peptide: H-RRL[Phe(4-F)]-NH2
SMILES: CC(C)C[C@H](NC(=O)[C@H](CCCNC(=N)N)NC(=O)[C@@H](N)CCCNC(=N)N)C(=O)N[C@@H](Cc1ccc(F)cc1)C(N)=O
B2: Ac-Arg-Arg-Leu-Asn-Phe-NH2 (peptide)
peptide: Ac-RRLNF-NH2

Target: CDK2/cyclin A complex (human, UniProt P24941 1-298; P20248 173-432)
Experiment: cell-based or functional assay

CDK2/cyclin A kinase activity IC50	Binder
50 µM	B1
> 50 µM	B2
